Measurements as given in publication PMC8887749, “The interaction of dengue virus capsid protein with negatively charged interfaces drives the in vitro assembly of nucleocapsid-like particles”.

Key:
[1] = biological target: Dengue virus capsid (C) protein, recombinant DENVC (dengue virus serotype 2) (UniProt P29990); assay: SAXS
[2] = biological target: DENV capsid protein (DENVC) (Dengue virus serotype 2, UniProt P29990 1-100); assay: fluorescence anisotropy; FITC-DENVC 50 nM; 1:1 DENVC:oligo stoichiometry; affinity stated only as nanomolar range; 55 mM NaH2PO4, 200 mM NaCl, 5 mM EDTA, pH 7.4, 25 C; settings: protein: recombinant; chain copies: 2; single strand
DENV capsid protein (DENVC), sequence (P29990 1-100): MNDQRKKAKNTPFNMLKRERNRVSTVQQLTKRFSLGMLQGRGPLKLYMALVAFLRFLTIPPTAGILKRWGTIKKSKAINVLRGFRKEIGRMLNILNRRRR

Dengue virus capsid (C) protein, recombinant DENVC (from UniProt P29990 1-100) (natural protein)
stoichiometry N [1]: 2

B1: 5-mer ssDNA (ssDNA)
DNA: GGGGG
binding result [2]: binds

B2: 25-mer ssDNA (ssDNA)
DNA: TCCATGGTAGACAGAGGATGGGGGA
binding result [2]: binds
